The chains are these.
B1: dynamin-2 (human Dyn2 isoform 1), wild type [human] / GST-tagged SH3 domain of endophilin [mouse] (parent complex)
chain 1: MGNRGMEELIPLVNKLQDAFSSIGQSCHLDLPQIAVVGGQSAGKSSVLENFVGRDFLPRGSGIVTRRPLILQLIFSKTEHAEFLHCKSKKFTDFDEVRQEIEAETDRVTGTNKGISPVPINLRVYSPHVLNLTLIDLPGITKVPVGDQPPDIEYQIKDMILQFISRESSLILAVTPANMDLANSDALKLAKEVDPQGLRTIGVITKLDLMDEGTDARDVLENKLLPLRRGYIGVVNRSQKDIEGKKDIRAALAAERKFFLSHPAYRHMADRMGTPHLQKTLNQQLTNHIRESLPALRSKLQSQLLSLEKEVEEYKNFRPDDPTRKTKALLQMVQQFGVDFEKRIEGSGDQVDTLELSGGARINRIFHERFPFELVKMEFDEKDLRREISYAIKNIHGVRTGLFTPDLAFEAIVKKQVVKLKEPCLKCVDLVIQELINTVRQCTSKLSSYPRLREETERIVTTYIREREGRTKDQILLLIDIEQSYINTNHEDFIGFANAQQRSTQLNKKRAIPNQGEILVIRRGWLTINNISLMKGGSKEYWFVLTAESLSWYKDEEEKEKKYMLPLDNLKIRDVEKGFMSNKHVFAIFNTEQRNVYKDLRQIELACDSQEDVDSWKASFLRAGVYPEKDQAENEDGAQENTFSMDPQLERQVETIRNLVDSYVAIINKSIRDLMPKTIMHLMINNTKAFIHHELLAYLYSSADQSSLMEESADQAQRRDDMLRMYHALKEALNIIGDISTSTVSTPVPPPVDDTWLQSASSHSPTPQRRPVSSIHPPGRPPAVRGPTPGPPLIPVPVGAAASFSAPPIPSRPGPQSVFANSDLFPAPPQIPSRPVRIPPGIPPGVPSRRPPAAPSRPTIIRPAEPSLLD
chain 2: not shown

The variants in this experiment derive from B1. Put plainly: GST pulldown; 12 µg GST-endophilin-SH3, 6 µg purified Dyn2; parent: 1; read off a plot.
As to chain 1 S848E, the ratio to parent is approximately 0.93.
The same measure for chain 1 S848A: approximately 1.1.

The record behind these values is paper PMC9712776 (2022).
